According to patent publication US20160272683A1 (Novo Nordisk, published 2016):
Numbered stars: 1 amine (or outer) side, 2 acyl side, 3 side chain; on linkers, the order of the positions; unused ones are H or OH. * marks the point of attachment. C20 diacid = O=C(O)CCCCCCCCCCCCCCCCCCC(=O)*; γGlu = O=C(O)[C@H](CCC(=O)[*:2])N[*:1]

T1: human amylin 3(a) receptor (human calcitonin receptor co-expressed with RAMP-3) on BHK570/CRE-luc cells (human, UniProt P30988 25-474; O60896 24-148)
T1 sequence (looked up) 1: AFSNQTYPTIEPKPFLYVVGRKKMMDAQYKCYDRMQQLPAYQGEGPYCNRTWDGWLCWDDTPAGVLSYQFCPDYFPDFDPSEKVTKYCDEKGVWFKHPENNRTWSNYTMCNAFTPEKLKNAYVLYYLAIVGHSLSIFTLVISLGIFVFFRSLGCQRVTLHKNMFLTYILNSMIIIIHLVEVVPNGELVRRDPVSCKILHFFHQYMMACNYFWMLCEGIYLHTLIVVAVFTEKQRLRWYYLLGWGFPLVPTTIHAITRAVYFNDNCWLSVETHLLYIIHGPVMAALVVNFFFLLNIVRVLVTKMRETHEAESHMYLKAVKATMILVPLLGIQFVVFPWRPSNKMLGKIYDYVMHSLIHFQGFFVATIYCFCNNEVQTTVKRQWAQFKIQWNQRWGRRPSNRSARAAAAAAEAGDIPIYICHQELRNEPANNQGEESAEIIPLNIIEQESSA
T1 sequence (looked up) 2: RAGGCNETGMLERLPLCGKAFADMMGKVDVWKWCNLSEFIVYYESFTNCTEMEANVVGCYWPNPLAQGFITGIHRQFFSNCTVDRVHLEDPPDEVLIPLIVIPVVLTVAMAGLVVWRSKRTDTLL

T2: human calcitonin receptor on BHK570/CRE-luc cells (human, UniProt P30988 25-474)
T2 sequence (looked up): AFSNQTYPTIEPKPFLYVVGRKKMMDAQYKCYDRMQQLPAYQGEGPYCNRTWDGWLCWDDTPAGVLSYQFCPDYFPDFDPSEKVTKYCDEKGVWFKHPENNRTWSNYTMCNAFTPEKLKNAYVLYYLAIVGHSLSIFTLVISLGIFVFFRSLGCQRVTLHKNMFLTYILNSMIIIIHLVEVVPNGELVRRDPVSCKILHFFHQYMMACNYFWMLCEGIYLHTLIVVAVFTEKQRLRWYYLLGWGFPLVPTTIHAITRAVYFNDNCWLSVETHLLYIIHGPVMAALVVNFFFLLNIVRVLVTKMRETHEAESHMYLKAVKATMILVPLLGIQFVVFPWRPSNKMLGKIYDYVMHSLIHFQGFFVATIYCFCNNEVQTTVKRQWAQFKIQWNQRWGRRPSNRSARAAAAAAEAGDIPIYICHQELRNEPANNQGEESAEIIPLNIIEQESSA


Assays:
[1] = target: T1, human amylin 3(a) receptor (human …); experiment: cell-based or functional assay
[2] = target: T2, human calcitonin receptor on …; experiment: cell-based or functional assay

| Binder | hAmylin-R funct. EC50 (pM), tested with HSA [1] | hCTR funct. EC50 (pM), tested with HSA [2] |
| --- | --- | --- |
| {C20 diacid-γGlu}-ASELSTAALGRLSAELHELATLPRTETGSGSA-NH2 (SMILES CC(C)C[C@H](NC(=O)[C@H](C)NC(=O)[C@H](C)NC(=O)[C@@H](NC(=O)[C@H](CO)NC(=O)[C@H](CC(C)C)NC(=O)[C@H](CCC(=O)O)NC(=O)[C@H](CO)NC(=O)[C@H](C)NC(=O)CC[C@H](NC(=O)CCCCCCCCCCCCCCCCCCC(=O)O)C(=O)O)[C@@H](C)O)C(=O)NCC(=O)N[C@@H](CCCNC(=N)N)C(=O)N[C@@H](CC(C)C)C(=O)N[C@@H](CO)C(=O)N[C@@H](C)C(=O)N[C@@H](CCC(=O)O)C(=O)N[C@@H](CC(C)C)C(=O)N[C@@H](Cc1c[nH]cn1)C(=O)N[C@@H](CCC(=O)O)C(=O)N[C@@H](CC(C)C)C(=O)N[C@@H](C)C(=O)N[C@H](C(=O)N[C@@H](CC(C)C)C(=O)N1CCC[C@H]1C(=O)N[C@@H](CCCNC(=N)N)C(=O)N[C@H](C(=O)N[C@@H](CCC(=O)O)C(=O)N[C@H](C(=O)NCC(=O)N[C@@H](CO)C(=O)NCC(=O)N[C@@H](CO)C(=O)N[C@@H](C)C(N)=O)[C@@H](C)O)[C@@H](C)O)[C@@H](C)O) [[N-terminal(C20 diacid-gGlu), des1, 30S, 31G, 33A]mimylin] | 265 pM | 102 pM |
| {C20 diacid-γGlu}-ASELSTAALGRLSEELHELATLPRTETGSGSP-NH2 (SMILES CC(C)C[C@H](NC(=O)[C@H](C)NC(=O)[C@H](C)NC(=O)[C@@H](NC(=O)[C@H](CO)NC(=O)[C@H](CC(C)C)NC(=O)[C@H](CCC(=O)O)NC(=O)[C@H](CO)NC(=O)[C@H](C)NC(=O)CC[C@H](NC(=O)CCCCCCCCCCCCCCCCCCC(=O)O)C(=O)O)[C@@H](C)O)C(=O)NCC(=O)N[C@@H](CCCNC(=N)N)C(=O)N[C@@H](CC(C)C)C(=O)N[C@@H](CO)C(=O)N[C@@H](CCC(=O)O)C(=O)N[C@@H](CCC(=O)O)C(=O)N[C@@H](CC(C)C)C(=O)N[C@@H](Cc1c[nH]cn1)C(=O)N[C@@H](CCC(=O)O)C(=O)N[C@@H](CC(C)C)C(=O)N[C@@H](C)C(=O)N[C@H](C(=O)N[C@@H](CC(C)C)C(=O)N1CCC[C@H]1C(=O)N[C@@H](CCCNC(=N)N)C(=O)N[C@H](C(=O)N[C@@H](CCC(=O)O)C(=O)N[C@H](C(=O)NCC(=O)N[C@@H](CO)C(=O)NCC(=O)N[C@@H](CO)C(=O)N1CCC[C@H]1C(N)=O)[C@@H](C)O)[C@@H](C)O)[C@@H](C)O) [[N-terminal(C20 diacid-gGlu), des1, 15E, 30S, 31G]mimylin] | 85 pM | 40 pM |
| {C20 diacid-γGlu}-ASELSTAALGRLSAELHELATLPRTETGSGSG-NH2 (SMILES CC(C)C[C@H](NC(=O)[C@H](C)NC(=O)[C@H](C)NC(=O)[C@@H](NC(=O)[C@H](CO)NC(=O)[C@H](CC(C)C)NC(=O)[C@H](CCC(=O)O)NC(=O)[C@H](CO)NC(=O)[C@H](C)NC(=O)CC[C@H](NC(=O)CCCCCCCCCCCCCCCCCCC(=O)O)C(=O)O)[C@@H](C)O)C(=O)NCC(=O)N[C@@H](CCCNC(=N)N)C(=O)N[C@@H](CC(C)C)C(=O)N[C@@H](CO)C(=O)N[C@@H](C)C(=O)N[C@@H](CCC(=O)O)C(=O)N[C@@H](CC(C)C)C(=O)N[C@@H](Cc1c[nH]cn1)C(=O)N[C@@H](CCC(=O)O)C(=O)N[C@@H](CC(C)C)C(=O)N[C@@H](C)C(=O)N[C@H](C(=O)N[C@@H](CC(C)C)C(=O)N1CCC[C@H]1C(=O)N[C@@H](CCCNC(=N)N)C(=O)N[C@H](C(=O)N[C@@H](CCC(=O)O)C(=O)N[C@H](C(=O)NCC(=O)N[C@@H](CO)C(=O)NCC(=O)N[C@@H](CO)C(=O)NCC(N)=O)[C@@H](C)O)[C@@H](C)O)[C@@H](C)O) [[N-terminal(C20 diacid-gGlu), des1, 30S, 31G, 33G]mimylin] | 435 pM | 239 pM |
